This note sets out measurements from patent US20220127365A1 (DREN BIO, published 2022).

What is called EC50 is the concentration giving half of the maximal effect. A low value points to higher potency in that assay. What is called EC50 (read off the curve) is the midpoint of the concentration-response curve. High values mean weaker potency, low ones greater potency.

In assay [1] the target is T1, human CD94 (human, UniProt Q13241 1-179).
T1 construct: whole, on cells; Endogenous CD94 on primary cells (healthy-donor PBMC NK cells, CLPD-NK and T-LGLL patient cells), where it pairs with NKG2A or NKG2C; also called KLRD1; Natural killer cells antigen CD94
T1 sequence (looked up): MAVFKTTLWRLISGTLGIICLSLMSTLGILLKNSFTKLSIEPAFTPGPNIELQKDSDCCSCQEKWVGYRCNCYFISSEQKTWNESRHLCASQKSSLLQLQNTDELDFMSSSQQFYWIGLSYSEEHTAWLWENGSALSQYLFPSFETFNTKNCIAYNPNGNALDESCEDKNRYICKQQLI
In words: flow cytometry titration (100 nM to 0.046 nM) on healthy-donor PBMCs, CD3-CD56bright NK cells; column 'Affinity on human NK cells (nM)'. In general terms: A flow cytometer gives signals particle by particle.

For assay [2], the target named is T1, human CD94. Kind of assay: HLA-E tetramer blocking on healthy-donor PBMCs, flow cytometry; competitor HLA-E tetramer. Here is the method:
(§1) Healthy donor PBMCs were seeded in 96-well plates at a density of 100,000 cells per well, incubated with human Fc block (Biolegend) and cell viability dye (Thermo Fisher) for 30 minutes on ice and protected from light. The cells were washed once with FACS buffer (PBS with 2% IgG low FBS). anti-CD94 antibodies at EC80 concentrations were incubated with cells for 30 minutes on ice and protected from light. After incubation with the anti-CD94 antibodies, the cells were washed and incubated with HLA-E tetramer PE (Creative Biolabs), anti-CD3 pacific blue-labelled, and anti-CD56 FITC-labelled antibodies (Biolegend) for 30 minutes on ice and protected from light. The cells then received a final wash in FACS buffer before quantification on the Cytoflex (Beckman Coulter). All data acquisition and fluorescence compensation were performed using CytoFlex (Beckman Coulter, Atlanta, Ga.). Data analysis was performed using FlowJo software. NK cells were identified through gating on lymphocytes on the forward and side scatter, followed by doublet and dead cell exclusion, and gated on the CD3−CD56+ population. HLA-E expression was then quantified on the CD3−CD56+NK cell population. Percent blocking was calculated as 100−((percent HLA-E positive for anti-CD94 antibody)/(percent HLA-E positive for isotype)*100).
Healthy donor PBMCs were incubated with anti-CD94 antibodies. PE labeled HLA-E tetramer was then incubated with cells and antibody mixture and detected by flow cytometry.
Percent blocking was calculated as 100−((percent HLA-E positive for anti-CD94 antibody)/(percent HLA-E positive for isotype)*100). If an antibody blocked more than 20% of HLA-E binding, it was considered a ligand-blocking antibody.

Assay [3] concerns the target T1, human CD94. In words: cell-based or functional assay.
In assay [4] the target is T2, cynomolgus CD94 (cynomolgus monkey).
T2 construct: whole, on cells; The construct expressed in HEK293 cells is not described further; also called cyno CD94; cynomolgus monkey CD94
Kind of assay: flow cytometry on HEK293 cells overexpressing cynomolgus CD94; unconjugated antibody in a dilution series, Alexa Fluor 647 anti-human secondary antibody. The procedure:
For human NK cell binding, PBMCs were freshly isolated from healthy donors and incubated with unconjugated antibodies in a dilution series from 100 nM to 0.046 nM. Secondary anti-human antibody labeled with Alexa Fluor 647 was used to detect binding on CD3−CD56bright NK cells. For cynomolgus CD94 binding, HEK293 cells overexpressing cynomolgus CD94 were incubated with unconjugated antibodies in a dilution series from 100 nM to 0.046 nM. Secondary anti-human antibody labeled with Alexa Fluor 647 was used to detect binding on the cells.

The target of assay [5] is T1, human CD94. Kind of assay: table column 'HLA-E blocking'; flow cytometry on NK cells of healthy donor PBMCs, antibody at saturating concentration, blocked ligand PE labeled HLA-E tetramer; percent blocking = 100-((percent HLA-E positive with antibody)/(percent HLA-E positive with isotype)*100). The procedure:
FIGS. 4A & 4B show the results of HLA-E tetramer blocking assays performed with anti-CD94 and commercially available anti-CD94 antibodies using flow cytometry. Healthy donor PBMCs were incubated with anti-CD94 antibodies. PE labeled HLA-E tetramer was then incubated with the cell and antibody mixture, and detected using flow cytometry. For HP-3B1, 131412, 12K45, DX22, 1M4 and 1E4, 2.5 μl of HLA-E tetramer reagent was used, while 5 μl was used for 18H3 and HP-3D9. Saturating concentrations of each antibody was used in this assay. The percent blocking was calculated as 100−((percent HLA-E positive for anti-CD94 antibody)/(percent HLA-E positive for isotype)*100).
as §1

B1: anti-CD94 antibody ATX-128 (antibody, V domains shown)
VH: QVQLQESGGGLVQPGGSLKLSCAASGFTFSGSTIQWVRQASGKGLEWVGRIRSKANSYATASAASVKGRFTISRDDSKNMAYLQMNSLKTEDTAVYYCTREGLGYYNVGYYYFYMDVWGKGTTVTVSS
VL: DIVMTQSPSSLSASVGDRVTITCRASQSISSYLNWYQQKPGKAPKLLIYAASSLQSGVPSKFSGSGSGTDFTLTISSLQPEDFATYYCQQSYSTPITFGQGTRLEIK
B1 displayed an EC50 in assay [1] of 0.32 nM. For the same molecule, in assay [2], the “percent HLA-E blocking” value was determined as 10%.

B2: 18H3-KIF (antibody, V domains shown)
VH: EVQLVQSGAEVKKPGESLKISCKGSGYRFTSYWIGWVRQMPGKGLEWMGIIYPGDSDTRYSPSFQGQVIISADKSITTAFLQWSSLKASDTAMYYCARPFDYGGSPGYFDYWGQGTLVTVSS
VL: DIQMTQSPSTLSASVGDRVTITCRASQSIRSWLAWYQQKPGKAPKLLIYKASSLESGVPSRFSGSGSGTEFTLTISSLQPDDFATYYCQQYNTFWTFGQGTKVEIK
As for B2, in assay [3], the “IC50 of CLPD-NK leukemic cell depletion, ADCC assay with CLPD-NK patient PBMCs” value amounted to 0.059 µg/mL and the “IC50 of NK cell depletion, ADCC assay with healthy donor PBMCs” value came to 0.02 µg/mL.

B3: anti-CD94 antibody ATX-129 (antibody, human IgG1, V domains shown)
VH: EVQLVQSGGGLVQPGGSLRLSCAASGFTFSSYWMSWVRQAPGKGLEWVANIKQDGSAKYYVDSVKGRFTISRDNAKNSLYLQMNSLRAEDTAVYYCARGYYFDYWGQGTLVTVSS
VL: EIVLTQSPSTLSASVGDRVTITCRVSQGISSYLNWYRQKPGKVPKLLIYAASSLQSGVPSRFSGSGSGTDFTLTISSLQPEDFATYYCQQSYSTPITFGQGTRLEIK
For B3, a half-maximal response in assay [1] (EC50) required 2.8 nM. Further, in assay [2], the “percent HLA-E blocking” value was found to be 96%.

B4: anti-CD94 antibody ATX-125 (antibody, human IgG1, V domains shown)
VH: QVQLQQSGPGLVKPSETLSLTCTVSGGSISSIIYYWGWIRQPPGKGLEWIGSIYYSGSTYYNPSLKSRVTISVDTSKNQFSLNLSSVTAADTAVYYCARLPLTGEFAFDIWGQGTMVTVSS
VL: EIVLTQSPATLSLSPGERATLSCRASQSVSTYLAWFQQKPGQAPRLLIYGASSRATGIPDRFSGSGSGTDFTLTISRLEPEDFAVYYCQQYGSSPITFGQGTRLEIK
As for B4, in assay [1], a half-maximal effect (EC50) was put at 4.63 nM. Also, the “percent HLA-E blocking” value in assay [2] was 11%. The “EC50 (read off the curve)” value in assay [4] was about 2 nM.

B5: anti-CD94 antibody ATX-127 (antibody, human IgG1, V domains shown)
VH: QVQLQQSGPGLVKPSGTLSLTCAVSGGSISSRYWWTWVRQPPGKGLEWIGEIYHSGTTNYNPSLESRVTISVDKSKNQFSLKVSSVTAADTAVYYCARSPNWGYYYYYMDVWGKGTTVTVSS
VL: EIVMTQSPATLSVSPGERATLSCRASQSVSSSYLAWYQQKPGQAPRLLIYGASSRATGIPDRFSGSGSGTDFTLTISRLESEDFAVYYCQQYGRSLTFGGGTKVEIK
B5 returned an EC50 in assay [1] of 0.31 nM. In assay [2], the “percent HLA-E blocking” value turned out to be 77%.

B6: anti-CD94 antibody 1E4 (antibody, V domains shown)
VH: QVTLRESGPALVKPTQTLTLTCTFSGFSLSTSDLCVSWIRQPPGKALEWLALIDWNDDKYYSTSLQTRLTISKDTSKNQVVLTMTNMDPVDTATYYCARTIAAAGPYDAFDIWGQGTMVTVSS
VL: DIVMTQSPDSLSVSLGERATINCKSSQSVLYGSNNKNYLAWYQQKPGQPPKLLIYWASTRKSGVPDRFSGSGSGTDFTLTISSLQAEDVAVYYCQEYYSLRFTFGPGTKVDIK
notes: Hybridoma antibody from ATX-Gx Alloy transgenic mice; also called fucosylated 1E4
As for B6, the HLA-E blocking in assay [5] was 0%.

B7: anti-CD94 antibody 1M4 (antibody, V domains shown)
VH: QLVESGGGLVQPGGSLRLACAASGFTFSNYAMNWVRQAPGKGLEWVSVISGSGDTTYCADSVKGRFTISRDNSKNTLHLQLNSLRAEDTAVYYCAKNCYGSGSYYNHFDYWGQGTLVTVSS
VL: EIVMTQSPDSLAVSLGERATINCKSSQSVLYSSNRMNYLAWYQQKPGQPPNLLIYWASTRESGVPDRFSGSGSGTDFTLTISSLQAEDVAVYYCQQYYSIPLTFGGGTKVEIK
On to B7, for which the HLA-E blocking in assay [5] turned out to be 0%.

B8: anti-CD94 antibody ATX-124 (antibody, human IgG1, V domains shown)
VH: QVQLVQSGAEVKKPGASVKVSCKASGYTFTSYGISWVRQAPGQGLEWMGWISAYNGNTNYAQKLQGRVTMTTDTSTSTAYMEVRSLRSDDTAVYYCARDRGRFGELFFDHWGQGTLVTVSS
VL: DIVMTQSPSSVSASVGDRVTITCRASQGISNYLAWYQQKPGKAPKLLIYAASSLQSGVPSRFSGSGSGTDFTLTISSLQPEDFATYYCLQHNSYPFTFGPGTKVDIK
Turning to B8, in assay [1], the concentration giving a half-maximal response (EC50) is 10 nM. The “percent HLA-E blocking” value in assay [2] stood at 18%.

B9: anti-CD94 antibody ATX-123 (antibody, human IgG1, V domains shown)
VH: QVQLVQSGAEVKKPGASVKVSCKASGYTFTSYGISWVRQAPGQGLEWMGWISAYNGNTNYAQKFQGRVTMTTDTSTNTAYMELRSLRSDDTAVYYCARDRGRFGELLSDYWGQGTLVTVSS
VL: DIVMTQSPSSVSASVGDRVTITCRASQGISNYLAWYQQKPGKAPKLLIYAASSLQSGVPSRFSGSGSGTDFTLTISSLQPEDFATYYCLQHNSYPFTFGPGTKVDIK
Molecule B9 had an EC50 in assay [1] of 1.12 nM. For the same molecule, the “percent HLA-E blocking” value in assay [2] is 39%.

B10: anti-CD94 antibody ATX-122 (antibody, V domains shown)
VH: QVQLVQSGAEVKKPGASLKVSCKASGYTFTSYGVSWVRQAPGQGLEWVGWISPYNGNTNYAHNLQGRVAMTTDTSTSTAYMELRSLRSDDMAVYYCARDRGRFGELFFDYWGQGTLVTVSS
VL: DIVMTQSPSSVSASVGDRVTITCRASQGISNYLAWYQQKPGKAPKLLIYAASSLQSGVPSRFSGSGSGTDFTLTISSLQPEDFATYYCLQHNSYPFTFGPGTKVDIK
notes: Detected with an anti-human secondary antibody
As to B10, the response in assay [1] was half-maximal at 27 nM (EC50). In addition, the “percent HLA-E blocking” value in assay [2] was 0%.

B11: anti-CD94 antibody ATX-126 (antibody, human IgG1, V domains shown)
VH: QVQLQESGGGLVQPGGSLKLSCAASGFTFSSYSMNWVRQAPGKGLEWVSSISTSSNFIYYADSVKGRFTISRDNSKNTLYLQMNSLRAEDTAVYYCVRDMGPFYSFYYMDVWGNGTTVTVSS
VL: DIQVTQSPATLSLSPGERATLSCRASQSVSSSYLAWYQQKPGQAPRLLIYGASNRATGIPARFSGSGSGTDFTLTISSLQPEDFATYYCLQHNSYPPTFGGGTKVDIK
Turning to B11, the EC50 in assay [1] was found to be 2.52 nM. Also, in assay [2], the “percent HLA-E blocking” value was 0%. In addition, the “EC50 (read off the curve)” value in assay [4] is about 2 nM.
